The numbers were not newly measured in article PMC3417803, which cites them from elsewhere.

Like-named read-outs stand apart in the source and are kept apart here.

Data set [1] deals with Midkine (Homo sapiens) (UniProt P21741).
For data set [2] the target is unchanged. The source holds these as a separate data set.

Chain of UniProt P21741 (P21741 21-143): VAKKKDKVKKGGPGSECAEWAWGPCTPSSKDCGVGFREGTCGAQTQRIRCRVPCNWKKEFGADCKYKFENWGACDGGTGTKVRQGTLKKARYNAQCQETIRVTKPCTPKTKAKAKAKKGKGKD

As usually defined, the Kd is the free concentration of one partner at which half of the binding sites on the other are occupied at equilibrium, for simple one-to-one binding. Take PTPζ (from UniProt P23471): the figures for the Kd in data set [1] and in data set [2] were 8.8 nM and 0.56 nM, respectively.
